The data set in a line: label from the status in PepcDB records.

“MHSVPSTGFPQSEFSGPFWTGRGVACARPNRYVWTARPSDQSSRRMSTSFSRRLRRLQSQKETALCVGLDPVPARFPPSLQDGRLRTDAVRAFCTTIVEATAPYACAFKPNFAFFEALGPAGLTVLDQVVTTIPDDCLVLGDAKRGDIGHSARHYAASIYEELGLDACTVSPYLGRDSVMPFLEHEGTCTFVLARTSNDGAADLQEACTCDGTPLYRHVARRVQAWNADAPGGAGLVVGATAPAALQDLRSLCPSLPFLVPGVGAQGGDAAAVMDAAATDEGPVLVNSSRSILYASEGPNYANAAADAARALRDALNGGASSSRGAPSPPALEHHHHHH”: the protein production entry is given as “failed”.

With “MHTFKIDCQLHYRVIQMTEFVFQFEVAEHPWQTLIHESFQFKPDLAFEQYERDAGLNRLIRVNAPEGDLSVSYTAKVQTHIPERNTSLKECEIKDLPSDTLFYLAPSRFCESDLIDTMVTNTFAELPKGYSRVQAICDWIHDNIIYQSGSSDSTTTARDILVNRAGVCRDFAHLGIAICRALNIPARFVFGYMPFYQAQPDFHAIFEVYLENQWMLFDATRMGPIDQFVRVGTGLDAKDVPFATVYGEIELISMSPVIELV”, the protein production entry is given as “failed”.

In the case of “MHTNWQVCSLVVQAKSERISDISTQLNAFPGCEVAVSDAPSGQLIVVVEAEDSETLIQTIESVRNVEGVLAVSLVYHQQEEQGEETP”, the protein production result is recorded as “not failed”.

“MHTQEALFVRLALDAWNTQSSRTDKLIQSLSNEALAVETAPGRNSGTYLLGHLTAVHDAMLPLLELGDTLYPQLAPVFIQNPDKSGLEKPEINDLRLYWSLVQERLANQFNQLQPADWFNKHAAISREDFLKEPHRNKLSVLINRTNHMAYHLGQLAYLKK”: the protein production result is “not failed”.

Take “MHVFYSEERRGNLLILREGEVKHFRVRRIEKDEEFGVIHEGKIYVCKVRREDKREISCEIVEELETKLPPKDITLYQSVTVDLKTMDTIVRQATELGVLTFVPIISERSFQKEEAILKKTEKWKRIVIEAMKQSRRPIPMEIKKPVRLSDLIPESEENIILDNFYEGVKPKDVNLEAKTYSVVVGPEGGFSKRESQILREKGFKSVLLEPYTLRTETAVVSIVSILMNF”: the protein production entry is “not failed”.

As to “MHVSKVFPSLRDTLPRDLMASVVVFLVALPLCMGIAIASGMPPAKGLLTGIVGGLVVGFLAGSPLQVSGPAAGLAVLVFELVRTYGVAMLGPILLLAGAIQLLAGRLRLGCWFRVTSPAVVYGMLAGIGILIVLSQLHVMLDLAPKASGLDNLLAFPQAAFAALGSLGMDSGLDAALLGLGTIAVMWGWDKLRPQRLRFLPGALLGVSLATLASLWLALDVRRVEVPANLGEAIVWLRPADLLALADPSLLLAAVVVAFIASAETLLSAAAVDRLHDGPRSDMDRELSAQGVGNMLCGLLGALPMTGVIVRSSANVNAGARTRASAIFHGLWLLAFVLLLGSLLRQIPVASLAGVLVYTGVKLVDFKALGNLSRYGRMPMLVYAATALAIVFTDLLTGVLVGFALTLLKLVLKAARLKIALRYTGEHEAELRLSGAATFLKVPALSRVLDEVKPGTTLHVPMDNLSYVDHACMELLEDWGRMAPVQGSRLVIEPRALKRRLEGRLRGSVGLGGARNGGAVSPG”, the protein production entry is listed as “failed”.

On to “MIAAAWIAVTAALYAAARALHRRFPRPWLTPLLVVPGALAAVLLAARVPYPGYMRGGRLLVDLLGPATVAFALPLHRHAGLLRRHAAELCAGILAGCAVAVGSSFLLARALGLGRPLALSLAPRSITTPFAMQVAGDLGGVPALAAVFVILTAVVGLVVGQLLLRWLPLRSAVARGALFGMGAHAAGTAQAMELGRVEGAVAGVVMIVAGLGVLVATPLLRLAL”, for which the protein production entry was “failed”.

For the sequence “MIAFQALQAISPIDGRYRNKVEVLSRYFSEGSLIRYRVKVEVEYFIALCNELPSLKDVCPPSLEEELRRIYQDFSEKDAVRVKEIEAVTNHDVKAVEYFLKERFEAMGIRDAKEFIHFGLTSQDVNNTAFPMMIREAMTEVYLPALQELVEQLHAYALQWKDVPMLAKTHGQPASPTRLGKEIEVFVYRLRKQIDLLLEVPHSAKFGGATGNFNAHHVAYPDHDWSDFGRRFVTSLGLEREELTTQISNYDNMAALFDACCRINVILIDLCRDFWQYISMEYFKQKIKAGEVGSSAMPHKVNPIDYENAEGNLGIANAIFEHLSRKLPISRLQRDLTDSTVLRNVGTPLAHSLIAVTSIAKGLGKLLLNEAALDRDLQNNYAVVAEAIQTILRREGYPNPYETLKALTRTNETVTAESIASFIEALDIDETVKEEMRRISPSNYVGI”, the protein production result is “failed”.

For “MIAISSLLGLVVRSFYFLLPDYRAADTWFHASKVKMIISTGTVYFSHVPGYFSAQIIKYPPGYHALIALLSGFKGENIIYGMNSLRIFEILYLPALAYLVGREIRREIGIFAALLTNFSALYYYFVQYALLPAFTNYMIFLLSVYFLEVAMRDRGIKISIMLGITSGIMAVVHPYQYILFQATAFFTTILSKNRKVFLTQLILSASVFLVFTPFSTEYAVKGILMNPRFSNKDNPNFLISILRYSFVDNGQILFGLSLILALILSLMRGGSIEKGLSLSFLLIIFMMLDKTYLNIRIPYLSAVWNSERAFMLTTPLIPILEGIGLNYIFKVKKELAAIFLVVGMMISYPYLRIEHLASESSYLLDPEVVDFIKEVSRIAGNETVMTACEFDSGRWIPILTETPIVCYSKNISEARYLYVDTRGAGEIEVYPINIVNFLDRRVVLFRDGLWLLDLNKHGKPTGDVLSYYHTNGTISYIKDTKWFVYGWVNKNYATMKLRLKGFPYAIMIVNTSSILFSTSESFDRIEIRISGKKGRALEIYLDGEFIKRYEFKTEYGDERIVLKVRVDPGMHYLILYSPNTTYKIPIGVKEIMLKREGP”, the protein production entry is listed as “failed”.

On to “MIAMILVHPHIFWLSLGGLLLAAEMLGGNGYLLWSGVAAVITGLTVWLLPLGWEWQGVLFAALTLLAAWLWWRWLARRVREQKPTDSRLNQRGQQLVGRRFMLDAALVNGRGHMRVGDSSWPVCADEDLRAGTHVEVIAVEGITLRIRAV”, for which the protein production result was “failed”.

Take “MIATLRSYLSADKRGLVGPAFLFLSLLASISDPFGGYGMTFLRRFLFWVLVLGVAGGIAFLSHRMVERHLSGAPLLGKDLLIVLLVTLSFTPSLWVLIFLFAAPSTGTAPDMWSMARYGTIFASGLIVLRRGVFGQSVPEEESLQPRIYKRLPEGFSEQILRLTVRDHSVDVVTDKGVHTIRSRFGDAIDEMVPISGHCTHRSHWVTDTAIESVERSGGKIHLRLSNGDLIPVSRKYRPALEEAGIV”: the protein production entry is recorded as “failed”.

“MICTPKVGLNNQLTKVQFFMTKYNFLFKQQVIEFYLQNDKNSSLTRRHFQLAETTLERWINQFNHSGINGLALLGKKRNYSPEFKLNVIQAVKNGKFSAEAACLHFGIANSGVVSQWLQAFEKQGINGLIPKPKGRPTMKLQYPKMPPKPKTREEELELENLRLRAENAILKKLQELNQQKMQKKPLSLEHHHHHH”: the protein production result is listed as “failed”.

Turning to “MIDFLDVQKETPRIRIAIDRVGVKNIKFPLKIHDDFAFLTLNLFVDVPADRKGADMSRAVESIQKVINAGSYGERIGDIGIAICDEALSRFNYSEKAQCEVNIQYYRRSGERYLEYRMYVETAKDRKQIMKNEIGISYVTMTACPCAMETTRALISMDNPDISDAISAIPTITHNQRNVTKLTVDNRSKMITVWDLADVMERVQGKPLDSLLKRVEEGRLVYSAHRNPKFVEDVVREIAYEAARVLGVPDEATIKVSSESDESIHPHNAYAEIDTTAGELRKLHLH”, the protein production entry is reported as “not failed”.

For the origin of these results see a protein production outcome set (Wang et al. 2014).
